From patent EP4725963A1 (Jiangsu Hengrui Pharmaceuticals Co., Ltd., dated 2026)
Like-named read-outs stand apart in the source and are kept apart here.

T1: human NPR1 full-length protein overexpressed on CHO-K1 cells (human, UniProt P16066 33-1061)
T1 sequence: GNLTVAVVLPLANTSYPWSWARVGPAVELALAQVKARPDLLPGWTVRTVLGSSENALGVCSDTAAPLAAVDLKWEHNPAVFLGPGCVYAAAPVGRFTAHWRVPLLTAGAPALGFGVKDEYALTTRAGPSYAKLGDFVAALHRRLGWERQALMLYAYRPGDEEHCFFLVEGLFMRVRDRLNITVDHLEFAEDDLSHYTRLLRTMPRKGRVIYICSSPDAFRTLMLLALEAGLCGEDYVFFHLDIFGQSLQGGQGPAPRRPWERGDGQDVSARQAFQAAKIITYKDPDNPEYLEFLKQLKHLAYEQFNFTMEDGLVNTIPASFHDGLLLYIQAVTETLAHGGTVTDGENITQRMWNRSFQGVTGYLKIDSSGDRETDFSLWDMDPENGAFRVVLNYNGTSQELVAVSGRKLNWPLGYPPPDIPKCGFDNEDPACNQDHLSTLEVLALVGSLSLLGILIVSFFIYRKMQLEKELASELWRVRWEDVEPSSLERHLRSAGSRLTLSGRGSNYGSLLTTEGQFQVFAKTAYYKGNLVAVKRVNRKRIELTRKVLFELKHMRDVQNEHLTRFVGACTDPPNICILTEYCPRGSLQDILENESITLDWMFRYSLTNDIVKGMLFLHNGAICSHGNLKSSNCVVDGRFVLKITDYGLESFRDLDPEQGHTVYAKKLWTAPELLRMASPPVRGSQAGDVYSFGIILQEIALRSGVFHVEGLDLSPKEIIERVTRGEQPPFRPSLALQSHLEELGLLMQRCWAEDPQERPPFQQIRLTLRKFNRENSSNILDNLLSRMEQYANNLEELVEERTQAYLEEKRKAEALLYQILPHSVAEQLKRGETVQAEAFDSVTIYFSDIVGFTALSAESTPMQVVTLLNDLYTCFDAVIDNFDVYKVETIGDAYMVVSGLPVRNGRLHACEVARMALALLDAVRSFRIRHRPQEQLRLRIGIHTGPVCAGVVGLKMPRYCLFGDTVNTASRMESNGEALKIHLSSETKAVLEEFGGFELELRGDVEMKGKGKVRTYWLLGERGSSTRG


Columns and labels:
[1] = target: T1, human NPR1 full-length protein …; assay: cell-based or functional assay
[2] = target: T1, human NPR1 full-length protein …; assay: cell-based or functional assay; remark: listed apart in the source

Binder | cGMP production: EC50 [1] | cGMP production: Emax [1] | cGMP production: Emin [1] | cGMP production: EC50 [2] | cGMP production: Emax [2] | cGMP production: Emin [2]
Hu127H4L1 (antibody, human IgG1, kappa, L234A L235A) heavy: not shown light: DIVMTQSPDSLAVSLGERATINCRASESVDSYGNSFMHWYQQKPGQPPKVLIYLASTLESGVPDRFSGSGSRTDFTLTISSLQAEDVAVYYCQQNNEDPLTFGQGTKLEIKRTVAAPSVFIFPPSDEQLKSGTASVVCLLNNFYPREAKVQWKVDNALQSGNSQESVTEQDSKDSTYSLSSTLTLSKADYEKHKVYACEVTHQGLSSPVTKSFNRGEC | 45.6 nM | 0.6 | 0.077 |  |  | 
Hu127H7L1 (antibody, human IgG1, kappa, L234A L235A) heavy: not shown light: DIVMTQSPDSLAVSLGERATINCRASESVDSYGNSFMHWYQQKPGQPPKVLIYLASTLESGVPDRFSGSGSRTDFTLTISSLQAEDVAVYYCQQNNEDPLTFGQGTKLEIKRTVAAPSVFIFPPSDEQLKSGTASVVCLLNNFYPREAKVQWKVDNALQSGNSQESVTEQDSKDSTYSLSSTLTLSKADYEKHKVYACEVTHQGLSSPVTKSFNRGEC | 55.8 nM | 0.5 | 0.081 |  |  | 
Hu127H4L3 (antibody, human IgG1, kappa, L234A L235A) heavy: not shown light: NIVLTQSPDSLAVSLGERATINCRASESVDSYGNSFMHWYQQKPGQPPKVLIYLASTLESGVPDRFSGSGSRTDFTLTISSLQAEDVAVYYCQQNNEDPLTFGQGTKLEIKRTVAAPSVFIFPPSDEQLKSGTASVVCLLNNFYPREAKVQWKVDNALQSGNSQESVTEQDSKDSTYSLSSTLTLSKADYEKHKVYACEVTHQGLSSPVTKSFNRGEC | 51.4 nM | 0.48 | 0.087 |  |  | 
Hu127H7L3 (antibody, human IgG1, kappa, L234A L235A) heavy: not shown light: NIVLTQSPDSLAVSLGERATINCRASESVDSYGNSFMHWYQQKPGQPPKVLIYLASTLESGVPDRFSGSGSRTDFTLTISSLQAEDVAVYYCQQNNEDPLTFGQGTKLEIKRTVAAPSVFIFPPSDEQLKSGTASVVCLLNNFYPREAKVQWKVDNALQSGNSQESVTEQDSKDSTYSLSSTLTLSKADYEKHKVYACEVTHQGLSSPVTKSFNRGEC | 56.5 nM | 0.54 | 0.066 |  |  | 
Hu127H4L5 (antibody, human IgG1, kappa, L234A L235A, V domains shown) VH: EAYLVQSGAEVKKPGASVKVSCKASGYSFTGYFMNWVRQAPGKGLEWMGRINPYSGDTFYNQKFKGRVTLTVDKSTSTVYMELSSLRSEDTAVYYCARRGYGNRGYWYFDVWGQGTTVTVSS VL: NIQLTQSPSSLSASVGDRVTITCRASESVDSYGNSFMHWYQQKPGKAPKVLIYLASTLESGVPSRFSGSGSRTDFTLTISSLQPEDFATYYCQQNNEDPLTFGQGTKLEIKR | 32.4 nM | 0.59 | 0.068 |  |  | 
Hu127H4L6 (antibody, human IgG1, kappa, L234A L235A, V domains shown) VH: EAYLVQSGAEVKKPGASVKVSCKASGYSFTGYFMNWVRQAPGKGLEWMGRINPYSGDTFYNQKFKGRVTLTVDKSTSTVYMELSSLRSEDTAVYYCARRGYGNRGYWYFDVWGQGTTVTVSS VL: NIQLTQSPSSLSASVGQRVTITCRASESVDSYGNSFMHWYQQKPGKPPKVLIYLASTLESGVPSRFSGSGSRTDFTLTISSLQPEDFATYYCQQNNEDPLTFGQGTKLEIKR | 38.5 nM | 0.54 | 0.073 |  |  | 
CHI-102 (antibody, human IgG1, kappa, V domains shown) VH: DVKLVESGEGLVKPGGSLKLSCAASGFTFSTYAMSWVRQTPEKRLEWVAYISRGGDYIYYADTVKGRFTISRDNARNTLYLQMSSLKSEDTAMYYCTRDQTTVVVHWYFDVWGTGTTVTVSS VL: QIVLTQSPAIMSASPGEKVTMTCSASSSINYMHWYQQKPGTSPKRWIYDTSKLASGVPARFSGSGSGTSYSLTISSMEAGDAATYYCHQRNSYTFGGGTKLEIKR |  |  |  | 54.9 nM | 0.57 | 0.23
Hu127H7L5 (antibody, human IgG1, kappa, L234A L235A) heavy: not shown light: NIQLTQSPSSLSASVGDRVTITCRASESVDSYGNSFMHWYQQKPGKAPKVLIYLASTLESGVPSRFSGSGSRTDFTLTISSLQPEDFATYYCQQNNEDPLTFGQGTKLEIKRTVAAPSVFIFPPSDEQLKSGTASVVCLLNNFYPREAKVQWKVDNALQSGNSQESVTEQDSKDSTYSLSSTLTLSKADYEKHKVYACEVTHQGLSSPVTKSFNRGEC | 42.6 nM | 0.51 | 0.068 |  |  | 
Hu127H7L6 (antibody, human IgG1, kappa, L234A L235A) heavy: not shown light: NIQLTQSPSSLSASVGQRVTITCRASESVDSYGNSFMHWYQQKPGKPPKVLIYLASTLESGVPSRFSGSGSRTDFTLTISSLQPEDFATYYCQQNNEDPLTFGQGTKLEIKRTVAAPSVFIFPPSDEQLKSGTASVVCLLNNFYPREAKVQWKVDNALQSGNSQESVTEQDSKDSTYSLSSTLTLSKADYEKHKVYACEVTHQGLSSPVTKSFNRGEC | 35.5 nM | 0.49 | 0.063 |  |  | 

Now from value to binder:

cGMP production: EC50 [1] | cGMP production: Emax [1] | cGMP production: Emin [1] | cGMP production: EC50 [2] | cGMP production: Emax [2] | cGMP production: Emin [2] | Binder
48.6 nM | 0.46 | 0.072 |  |  |  | Hu127H8L3 (antibody, human IgG1, kappa, L234A L235A) heavy: not shown light: NIVLTQSPDSLAVSLGERATINCRASESVDSYGNSFMHWYQQKPGQPPKVLIYLASTLESGVPDRFSGSGSRTDFTLTISSLQAEDVAVYYCQQNNEDPLTFGQGTKLEIKRTVAAPSVFIFPPSDEQLKSGTASVVCLLNNFYPREAKVQWKVDNALQSGNSQESVTEQDSKDSTYSLSSTLTLSKADYEKHKVYACEVTHQGLSSPVTKSFNRGEC
62.6 nM | 0.45 | 0.083 |  |  |  | Hu127H8L1 (antibody, human IgG1, kappa, L234A L235A) heavy: not shown light: DIVMTQSPDSLAVSLGERATINCRASESVDSYGNSFMHWYQQKPGQPPKVLIYLASTLESGVPDRFSGSGSRTDFTLTISSLQAEDVAVYYCQQNNEDPLTFGQGTKLEIKRTVAAPSVFIFPPSDEQLKSGTASVVCLLNNFYPREAKVQWKVDNALQSGNSQESVTEQDSKDSTYSLSSTLTLSKADYEKHKVYACEVTHQGLSSPVTKSFNRGEC
36.6 nM | 0.42 | 0.068 |  |  |  | Hu127H8L6 (antibody, human IgG1, kappa, L234A L235A) heavy: not shown light: NIQLTQSPSSLSASVGQRVTITCRASESVDSYGNSFMHWYQQKPGKPPKVLIYLASTLESGVPSRFSGSGSRTDFTLTISSLQPEDFATYYCQQNNEDPLTFGQGTKLEIKRTVAAPSVFIFPPSDEQLKSGTASVVCLLNNFYPREAKVQWKVDNALQSGNSQESVTEQDSKDSTYSLSSTLTLSKADYEKHKVYACEVTHQGLSSPVTKSFNRGEC
42 nM | 0.43 | 0.065 |  |  |  | Hu127H8L5 (antibody, human IgG1, kappa, L234A L235A) heavy: not shown light: NIQLTQSPSSLSASVGDRVTITCRASESVDSYGNSFMHWYQQKPGKAPKVLIYLASTLESGVPSRFSGSGSRTDFTLTISSLQPEDFATYYCQQNNEDPLTFGQGTKLEIKRTVAAPSVFIFPPSDEQLKSGTASVVCLLNNFYPREAKVQWKVDNALQSGNSQESVTEQDSKDSTYSLSSTLTLSKADYEKHKVYACEVTHQGLSSPVTKSFNRGEC
